Measured values published in IntAct's records for PubMed 32637409.

B1: Mitochondrial Rho GTPase 1 (Homo sapiens), Q8IXI2 (parent)
chain: MKKDVRILLVGEPRVGKTSLIMSLVSEEFPEEVPPRAEEITIPADVTPERVPTHIVDYSEAEQSDEQLHQEISQANVICIVYAVNNKHSIDKVTSRWIPLINERTDKDSRLPLILVGNKSDLVEYSSMETILPIMNQYTEIETCVECSAKNLKNISELFYYAQKAVLHPTGPLYCPEEKEMKPACIKALTRIFKISDQDNDGTLNDAELNFFQRICFNTPLAPQALEDVKNVVRKHISDGVADSGLTLKGFLFLHTLFIQRGRHETTWTVLRRFGYDDDLDLTPEYLFPLLKIPPDCTTELNHHAYLFLQSTFDKHDLDRDCALSPDELKDLFKVFPYIPWGPDVNNTVCTNERGWITYQGFLSQWTLTTYLDVQRCLEYLGYLGYSILTEQESQASAVTVTRDKKIDLQKKQTQRNVFRCNVIGVKNCGKSGVLQALLGRNLMRQKKIREDHKSYYAINTVYVYGQEKYLLLHDISESEFLTEAEIICDVVCLVYDVSNPKSFEYCARIFKQHFMDSRIPCLIVAAKSDLHEVKQEYSISPTDFCRKHKMPPPQAFTCNTADAPSKDIFVKLTTMAMYPHVTQADLKSSTFWLRASFGATVFAVLGFAMYKALLKQR
partner: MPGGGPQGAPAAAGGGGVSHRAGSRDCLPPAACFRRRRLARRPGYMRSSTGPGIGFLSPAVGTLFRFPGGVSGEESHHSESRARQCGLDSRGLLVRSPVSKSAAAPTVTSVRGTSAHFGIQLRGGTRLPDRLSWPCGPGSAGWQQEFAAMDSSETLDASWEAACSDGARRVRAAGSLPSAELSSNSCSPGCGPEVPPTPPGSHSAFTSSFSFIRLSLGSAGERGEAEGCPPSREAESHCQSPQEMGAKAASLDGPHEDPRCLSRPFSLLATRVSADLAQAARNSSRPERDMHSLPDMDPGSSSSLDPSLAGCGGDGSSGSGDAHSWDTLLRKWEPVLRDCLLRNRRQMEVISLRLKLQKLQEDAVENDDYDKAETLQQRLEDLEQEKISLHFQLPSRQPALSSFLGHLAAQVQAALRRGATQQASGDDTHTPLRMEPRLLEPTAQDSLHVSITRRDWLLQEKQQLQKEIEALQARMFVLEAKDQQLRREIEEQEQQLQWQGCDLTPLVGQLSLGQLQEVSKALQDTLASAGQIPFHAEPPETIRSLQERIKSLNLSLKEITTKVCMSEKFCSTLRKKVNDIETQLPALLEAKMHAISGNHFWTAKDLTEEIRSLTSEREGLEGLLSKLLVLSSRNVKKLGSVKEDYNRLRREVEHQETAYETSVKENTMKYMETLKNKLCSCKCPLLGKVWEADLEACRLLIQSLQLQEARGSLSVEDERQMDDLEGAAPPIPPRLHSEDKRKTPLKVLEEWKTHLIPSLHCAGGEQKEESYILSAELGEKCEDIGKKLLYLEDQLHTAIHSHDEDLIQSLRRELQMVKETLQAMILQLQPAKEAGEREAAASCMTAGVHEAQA

Variants of: B1
Details: with disc1_human DISC1, Q9NRI5

effect of a mutation on the interaction	Variant
increasing interaction	P13V
with no effect	T18N
